Results on seven molecules are retold here after patent US20260265381A1 (Hoffmann-La Roche, published 2026).

Assay [1] deals with T1, human HLA-G expressed on cells (JEG3 cells, natural; SKOV3 cells transfected with recombinant HLA-G) (human, UniProt P17693 25-338).
T1 construct: also called SKOV3 HLA-G
As to the kind of experiment: flow cytometry; JEG3 cells pre-incubated with antibody, competitor ILT2-c-Myc-Fc at 10 ug/ml. Background: A flow cytometer gives signals particle by particle.

For assay [2], the target named is T2, recombinant single-chain HLA-G monomer/human HLA-G β2M MHC class I complex (human).
T2 construct: also called wt-HLA-G complex; wt-HLA-G antigen
As to the kind of experiment: SPR single cycle kinetics (Biacore T200, 25 C); antibody captured via Fc on CM3 chip, HLA-G complex as analyte.

The target in assay [3] is T2, recombinant single-chain HLA-G …. As to the kind of experiment: SPR relative active concentration; after 13 days PBS pH 7.4 at 37 C.
For assay [4] the target is unchanged. As to the kind of experiment: SPR relative active concentration; after 13 days His pH 6.0 at 40 C.
For assay [5], the target named is T1, human HLA-G expressed on cells (JEG3 …). As to the kind of experiment: flow cytometry on SKOV3 HLA-G cells (SKOV3 transfected with HLA-G); antibody at 2 µg/ml per legend paragraph 51 (10 µg/ml per paragraph 491); detection with goat anti-human IgG (H+L) Alexa 488.
For assay [6], the target named is T2, recombinant single-chain HLA-G …. Put plainly: SPR relative active concentration; Ref. (frozen at -80 C).
Assay [7] concerns the target T3, rat RT1 (SEQ ID NO: 43) (rat).
T3 construct: Recombinant single-chain peptide-MHC complex construct (peptide, β2M, MHC class I molecule); also called rat RT1A β2M MHC class I complex
T3 chain: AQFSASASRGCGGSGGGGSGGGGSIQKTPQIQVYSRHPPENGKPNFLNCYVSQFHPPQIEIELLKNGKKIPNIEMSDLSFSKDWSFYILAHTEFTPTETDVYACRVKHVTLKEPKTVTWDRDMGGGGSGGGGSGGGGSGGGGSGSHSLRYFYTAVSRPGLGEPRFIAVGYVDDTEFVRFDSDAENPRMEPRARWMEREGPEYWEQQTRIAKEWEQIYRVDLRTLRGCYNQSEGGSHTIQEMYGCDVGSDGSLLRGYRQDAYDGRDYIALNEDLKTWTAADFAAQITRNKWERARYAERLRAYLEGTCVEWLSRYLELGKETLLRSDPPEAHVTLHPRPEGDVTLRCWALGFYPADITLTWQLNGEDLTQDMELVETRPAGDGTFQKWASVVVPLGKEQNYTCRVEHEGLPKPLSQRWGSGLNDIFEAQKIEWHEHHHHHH
As to the kind of experiment: SPR (Biacore T200, 25 C); antibody immobilized on CM3 chip, single-chain peptide-MHC as analyte. In general terms: Surface plasmon resonance follows binding to a sensor surface in real time, without labels.

Assay [8] deals with T4, human HLA-G β2M MHC class I complex, wherein the HLA-G specific amino acids have been replaced by HLA-A … (human).
T4 construct: Recombinant single-chain peptide-MHC complex construct; also called HLA-A consensus on HLA-G frame; degrafted HLA-G
Described as above.

In assay [9] the target is T1, human HLA-G expressed on cells (JEG3 …). Put plainly: flow cytometry on JEG3 cells (natural HLA-G); antibody at 2 µg/ml per legend paragraph 51 (10 µg/ml per paragraph 491); detection with goat anti-human IgG (H+L) Alexa 488.
Assay [10] concerns the target T2, recombinant single-chain HLA-G …. Put plainly: SPR multi cycle kinetics (Biacore T200, 25 C); antibody captured via Fc on CM3 chip, HLA-G complex as analyte.
The target is the same in assay [11]. As to the kind of experiment: SPR multi cycle kinetics.
The target of assay [12] is T5, human CD3 expressed on cells (Jurkat NFAT reporter cells; human T cells isolated from PBMCs) (human, UniProt P07766 23-207).
T5 construct: on cells it is part of the CD3/TCR complex; also called CD3 on Jurkat cells; CD3 expressed on T-cells
T5 sequence (P07766 23-207 limits assumed): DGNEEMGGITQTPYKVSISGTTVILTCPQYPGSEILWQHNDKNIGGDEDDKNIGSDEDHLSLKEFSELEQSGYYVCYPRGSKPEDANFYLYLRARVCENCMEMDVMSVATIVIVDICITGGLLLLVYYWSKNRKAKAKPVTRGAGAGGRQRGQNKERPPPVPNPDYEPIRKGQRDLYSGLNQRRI
As to the kind of experiment: flow cytometry on Jurkat NFAT cells; IgG1 PGLALA format; detection with PE anti-human IgG Fc F(ab')2.

B1: HLA-G-0090 (antibody, IgG1, V domains shown)
VH: QVQLQQSGPGLLKPSQTLSLTCAISGDSVSSNRAAWNWIRQSPSRGLEWLGRTYYRSKWYNDYAVSVQGRITLIPDTSKNQFSLRLNSVTPEDTAVYYCASVRAVAPFDYWGQGVLVTVSS
VL: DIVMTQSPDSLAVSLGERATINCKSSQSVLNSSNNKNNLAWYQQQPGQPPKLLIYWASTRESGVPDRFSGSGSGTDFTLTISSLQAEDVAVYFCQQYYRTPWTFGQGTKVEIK
modifications: N-glycosylation motif NSS in CDR-L1 at light chain positions 31 to 33 (Fab glycosylation detected)
notes: the parental antibody was expressed alongside them; also called parental antibody
What is called Kd is a measure of binding affinity in units of concentration. Usually koff stands for the rate constant with which the complex falls apart. By kon is commonly meant the rate constant with which the complex forms. What is called t½ is the time in which the quantity being followed falls by half. In the case of B1, in [1], the “inhibition of ILT2 binding to Jeg3 cells” value is 72%. The Kd in [2] came to 1.2 nM; in assay [10] it was 1.4 nM. Further, the koff in assay [2] was found to be 0.00138 s⁻¹; in assay [10] it was 0.00178 s⁻¹. Further, the kon is 1.19e+06 M⁻¹ s⁻¹ in assay [2] and 1.3e+06 M⁻¹ s⁻¹ in [10]. Further, the t½ in assay [2] worked out at 501 s; in [10] it was 390 s. Moreover, the “relative HLA-G binding signal compared to Ref (as 100%), by SPR RAC” value in [3] is 96%; in [4], 99%; in assay [6], 100%. Also, the MFI in assay [5] is 13100; in assay [9] it was 6060. The binding result in assay [7] and in [8] was “no binding” in each case.

B2: HLA-G-0090-VL-S33P (antibody, IgG1, V domains shown)
VH: QVQLQQSGPGLLKPSQTLSLTCAISGDSVSSNRAAWNWIRQSPSRGLEWLGRTYYRSKWYNDYAVSVQGRITLIPDTSKNQFSLRLNSVTPEDTAVYYCASVRAVAPFDYWGQGVLVTVSS
VL: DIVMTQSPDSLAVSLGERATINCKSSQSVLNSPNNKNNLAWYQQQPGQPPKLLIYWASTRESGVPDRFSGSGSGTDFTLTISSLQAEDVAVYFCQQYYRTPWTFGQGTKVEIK
notes: also called HLA-G-0090-S33P
On to B2, for which, in assay [2], the Kd is 1.8 nM, the koff was 0.00236 s⁻¹, the kon amounted to 1.34e+06 M⁻¹ s⁻¹ and the t½ worked out at 294 s. Also, in assay [11], the “factor of loss of binding affinity compared to HLA-G-0090” value was found to be 2 fold. In assay [10], the Kd was 2.7 nM, the koff was 0.00368 s⁻¹, the kon was 1.36e+06 M⁻¹ s⁻¹ and the t½ was 188 s.

B3: HLA-G-0090-VL-S32P (antibody, IgG1, V domains shown)
VH: QVQLQQSGPGLLKPSQTLSLTCAISGDSVSSNRAAWNWIRQSPSRGLEWLGRTYYRSKWYNDYAVSVQGRITLIPDTSKNQFSLRLNSVTPEDTAVYYCASVRAVAPFDYWGQGVLVTVSS
VL: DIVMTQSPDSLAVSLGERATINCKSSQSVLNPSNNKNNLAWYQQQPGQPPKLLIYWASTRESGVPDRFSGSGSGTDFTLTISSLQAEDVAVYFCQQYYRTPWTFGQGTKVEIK
notes: also called HLA-G-0090-S32P
For the molecule B3, in assay [1], the “inhibition of ILT2 binding to Jeg3 cells” value is 72%. Further, the values for the Kd in assay [2] and in assay [10] were 1 nM and 1.2 nM, respectively. Besides, the koff turned out to be 0.00124 s⁻¹ in assay [2] and 0.00157 s⁻¹ in assay [10]. Moreover, the association rate constant (kon) in assay [2] came to 1.19e+06 M⁻¹ s⁻¹; in assay [10] it was 1.27e+06 M⁻¹ s⁻¹. Moreover, the t½ in assay [2] is 558 s; in [10] it was 441 s. Moreover, the “relative HLA-G binding signal compared to Ref (as 100%), by SPR RAC” value was 98% in assay [3], 99% in [4] and 100% in assay [6]. For the same molecule, the results for the MFI in [5] and in [9] were 13900 and 6330, respectively. The binding result in assay [7] and in assay [8] was “no binding” in each case.

B4: HLA-G-0090-VL-S33D (antibody, IgG1, V domains shown)
VH: QVQLQQSGPGLLKPSQTLSLTCAISGDSVSSNRAAWNWIRQSPSRGLEWLGRTYYRSKWYNDYAVSVQGRITLIPDTSKNQFSLRLNSVTPEDTAVYYCASVRAVAPFDYWGQGVLVTVSS
VL: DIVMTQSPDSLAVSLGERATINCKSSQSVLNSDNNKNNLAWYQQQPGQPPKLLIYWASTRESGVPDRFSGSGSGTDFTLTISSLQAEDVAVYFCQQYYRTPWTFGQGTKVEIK
notes: also called HLA-G-0090-S33D
In the case of B4, in assay [2], the Kd turned out to be 4.8 nM, the koff is 0.00344 s⁻¹, the kon came to 717000 M⁻¹ s⁻¹ and the t½ came out at 202 s. For the same molecule, the “factor of loss of binding affinity compared to HLA-G-0090” value in assay [11] came out at 5 fold. In addition, in assay [10], the Kd turned out to be 7.4 nM, the koff amounted to 0.00667 s⁻¹, the on-rate constant (kon) was found to be 897000 M⁻¹ s⁻¹ and the t½ turned out to be 104 s.

B5: HLA-G-0090-VL-S33A (antibody, IgG1, V domains shown)
VH: QVQLQQSGPGLLKPSQTLSLTCAISGDSVSSNRAAWNWIRQSPSRGLEWLGRTYYRSKWYNDYAVSVQGRITLIPDTSKNQFSLRLNSVTPEDTAVYYCASVRAVAPFDYWGQGVLVTVSS
VL: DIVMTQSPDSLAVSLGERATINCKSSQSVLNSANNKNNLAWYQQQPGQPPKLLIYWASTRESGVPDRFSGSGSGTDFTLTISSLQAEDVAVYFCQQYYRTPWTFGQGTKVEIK
notes: also called HLA-G-0090-S33A
For B5, in [1], the “inhibition of ILT2 binding to Jeg3 cells” value stood at 72%. The figures for the Kd in assay [2] and in assay [10] were 1 nM and 1.2 nM, respectively. For the same molecule, the koff in assay [2] came to 0.00124 s⁻¹; in [10] it was 0.00149 s⁻¹. In addition, the kon in [2] and in assay [10] was 1.24e+06 M⁻¹ s⁻¹ throughout. In addition, the t½ in assay [2] was determined as 558 s; in [10], 466 s. Further, the “relative HLA-G binding signal compared to Ref (as 100%), by SPR RAC” value in assay [3] was 96%; in assay [4] it was 99%; in assay [6], 100%. Moreover, the MFI worked out at 14300 in [5] and 6380 in assay [9]. Moreover, the binding result in assay [7] and in assay [8] was “no binding” throughout.

B6: P035-093 (P035) human IgG1 PGLALA (antibody, V domains shown)
VH: EVQLLESGGGLVQPGGSLRLSCAASGFTFSSYAMNWVRQAPGKGLEWVSRIRSKYNNYATYYADSVKGRFTISRDDSKNTLYLQMNSLRAEDTAVYYCVRASNFPASYVSYFAYWGQGTLVTVSS
VL: QAVVTQEPSLTVSPGGTVTLTCGSSTGAVTTSNYANWVQEKPGQAFRGLIGGTNKRAPGTPARFSGSLLGGKAALTLSGAQPEDEAEYYCALWYSNLWVFGGGTKLTVLR
As a reminder, the EC50 (read off the curve) is the concentration needed to bring the measured effect to its halfway point. The low end stands for a more potent agent, the high end for a less potent agent. Turning to B6, in assay [12], the concentration for a half-maximal effect (EC50 (read off the curve)) was ~0.5 nM.

B7: CD3orig human IgG1 PGLALA (antibody, V domains shown)
VH: not shown
VL: QAVVTQEPSLTVSPGGTVTLTCGSSTGAVTTSNYANWVQEKPGQAFRGLIGGTNKRAPGTPARFSGSLLGGKAALTLSGAQPEDEAEYYCALWYSNLWVFGGGTKLTVLR
notes: Human IgG1 format with P329G L234A L235A mutations in the Fc region
As for B7, the “EC50 (read off the curve)” value in [12] is ~0.8 nM.
